According to the supplement of paper PMC10567573:

B1: TNXB (parent)
chain: LLQRELMVPGTRHSAVLRDLRSGT
B2: SNAP91 (parent)
chain: FAQPMMRPPFGAAAVPGTQLSPSP
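Further: lentivirally expressed fusions sorted by FACS into six bins by GFP to DsRed ratio, PSI derived from sequencing read proportions per bin multiplied by bin number.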

Variants of: B1
Experiment: protein stability index of a GFP-peptide fusion (GPS, HEK-293T) (PSI 1-6); higher = more stable
Conditions: c terminus: a fixed tail appended
Work on R4N yielded a protein stability index of 2.86.
In the case of R4S, the protein stability index is reported as 2.42.
With R4A the protein stability index was 2.19.
In the case of R4K, the protein stability index is reported as 2.46.
For L6H, the protein stability index was 3.18.
Work on L6E yielded a protein stability index of 2.7.
M7I gave a protein stability index of 2.44.
Work on H13T yielded a protein stability index of 2.22.
H13C gave a protein stability index of 2.1.
In the case of R12Q, the protein stability index is reported as 2.42.
Work on R12G yielded a protein stability index of 3.09.
S14N showed a protein stability index of 2.88.
Variant S14R has a protein stability index of 2.45.
S14A gave a protein stability index of 2.2.
For S14V, the protein stability index was 2.22.
For Q3S, the protein stability index was 2.61.
For Q3L, the protein stability index was 1.73.
Variant Q3I has a protein stability index of 1.72.
With Q3M the protein stability index was 2.16.
V16D showed a protein stability index of 3.19.
With V16R the protein stability index was 2.52.
S22R showed a protein stability index of 2.78.
With S22K the protein stability index was 2.77.
With S22M the protein stability index was 2.19.
In the case of A15Q, the protein stability index is reported as 1.97.
Variant A15R has a protein stability index of 3.4.
A15W gave a protein stability index of 3.49.
With A15Y the protein stability index was 1.62.
Work on A15D yielded a protein stability index of 2.29.
With A15T the protein stability index was 2.18.
Variant L1E has a protein stability index of 3.08.
Variant L1N has a protein stability index of 3.54.
L1I showed a protein stability index of 2.47.
For L20E, the protein stability index was 3.37.
With L20K the protein stability index was 3.02.
Work on L20V yielded a protein stability index of 2.63.
L20P gave a protein stability index of 2.53.
With D19T the protein stability index was 2.46.
Work on D19A yielded a protein stability index of 2.27.
Work on D19C yielded a protein stability index of 1.49.
D19Q gave a protein stability index of 2.29.
P9V gave a protein stability index of 2.38.
Variant P9D has a protein stability index of 2.69.
Work on P9L yielded a protein stability index of 2.02.
For T24Q, the protein stability index was 2.49.
In the case of T24I, the protein stability index is reported as 1.72.
Work on T24A yielded a protein stability index of 2.7.
Work on T24E yielded a protein stability index of 1.83.
In the case of T11R, the protein stability index is reported as 2.13.
Work on T11L yielded a protein stability index of 2.32.
For L17D, the protein stability index was 2.62.
L17R gave a protein stability index of 3.46.
L17S gave a protein stability index of 3.16.
For G23I, the protein stability index was 2.35.
Variant G23T has a protein stability index of 2.43.
G23E gave a protein stability index of 3.05.
In the case of G23K, the protein stability index is reported as 2.92.
G23Y showed a protein stability index of 2.14.
For G10K, the protein stability index was 2.
G10Q showed a protein stability index of 2.41.
E5R showed a protein stability index of 1.98.
E5F showed a protein stability index of 1.18.
In the case of V8Q, the protein stability index is reported as 2.22.
For V8S, the protein stability index was 3.11.
Variant R18S has a protein stability index of 2.61.
R18A showed a protein stability index of 2.68.
R18V showed a protein stability index of 2.51.
In the case of R18P, the protein stability index is reported as 2.75.
Work on R18K yielded a protein stability index of 2.39.
In the case of R18Q, the protein stability index is reported as 2.48.
Work on L2R yielded a protein stability index of 3.92.
Work on L2Y yielded a protein stability index of 2.71.

Variants of: B2
Experiment: as above
Conditions: c terminus: a fixed tail appended
For Q19Y, the protein stability index was 2.69.
With S23G the protein stability index was 3.05.
Variant S23W has a protein stability index of 2.03.
S23A showed a protein stability index of 3.4.
Variant S23V has a protein stability index of 3.19.
In the case of S23Y, the protein stability index is reported as 2.52.
S23D gave a protein stability index of 3.54.
Variant S23E has a protein stability index of 3.32.
With S23L the protein stability index was 2.1.
In the case of S23N, the protein stability index is reported as 3.29.
With S23T the protein stability index was 3.27.
For S23Q, the protein stability index was 3.
For S23M, the protein stability index was 2.36.
S23R showed a protein stability index of 4.14.
Variant S23K has a protein stability index of 3.21.
Work on S23F yielded a protein stability index of 2.75.
S23H gave a protein stability index of 2.96.
In the case of S23C, the protein stability index is reported as 3.25.
With S23I the protein stability index was 2.73.
P24S showed a protein stability index of 3.1.
With P24R the protein stability index was 2.87.
In the case of P24E, the protein stability index is reported as 3.45.
P24H showed a protein stability index of 2.96.
In the case of P24M, the protein stability index is reported as 3.23.
In the case of P24K, the protein stability index is reported as 3.83.
Variant P24W has a protein stability index of 2.77.
With P24T the protein stability index was 3.25.
In the case of P24C, the protein stability index is reported as 2.93.
Variant P24G has a protein stability index of 3.22.
Variant P24Q has a protein stability index of 3.32.
Variant P24L has a protein stability index of 2.35.
Work on P24Y yielded a protein stability index of 2.86.
In the case of P24D, the protein stability index is reported as 3.4.
For P24N, the protein stability index was 2.58.
Work on P24A yielded a protein stability index of 3.11.
P24F showed a protein stability index of 2.65.
P24I gave a protein stability index of 3.2.
In the case of P24V, the protein stability index is reported as 2.51.
Work on S21F yielded a protein stability index of 3.01.
S21W showed a protein stability index of 2.89.
With S21A the protein stability index was 3.49.
In the case of S21P, the protein stability index is reported as 3.11.
In the case of S21G, the protein stability index is reported as 3.28.
Variant S21Y has a protein stability index of 3.
S21Q gave a protein stability index of 3.29.
S21M showed a protein stability index of 2.85.
Variant S21K has a protein stability index of 2.95.
With S21L the protein stability index was 2.76.
In the case of S21H, the protein stability index is reported as 3.16.
In the case of S21I, the protein stability index is reported as 3.48.
Work on S21C yielded a protein stability index of 2.86.
S21V gave a protein stability index of 3.44.
In the case of S21N, the protein stability index is reported as 3.03.
For S21D, the protein stability index was 2.63.
Work on S21T yielded a protein stability index of 3.06.
For S21E, the protein stability index was 2.98.
S21R showed a protein stability index of 3.12.
Variant P22L has a protein stability index of 3.22.
Work on P22W yielded a protein stability index of 2.65.
With P22Y the protein stability index was 3.49.
Work on P22E yielded a protein stability index of 2.71.
Work on P22C yielded a protein stability index of 2.67.
Variant P22I has a protein stability index of 2.75.
Work on P22T yielded a protein stability index of 3.3.
Variant P22H has a protein stability index of 3.14.
P22G gave a protein stability index of 3.56.
With P22Q the protein stability index was 3.57.
Variant P22A has a protein stability index of 3.28.
For P22N, the protein stability index was 3.58.
With P22S the protein stability index was 2.96.
Work on P22F yielded a protein stability index of 2.82.
With P22M the protein stability index was 2.86.
In the case of P22V, the protein stability index is reported as 3.08.
In the case of P22K, the protein stability index is reported as 3.
Work on P22D yielded a protein stability index of 2.97.
Variant P22R has a protein stability index of 3.32.
L20A showed a protein stability index of 3.28.
For L20C, the protein stability index was 3.7.
For L20Y, the protein stability index was 3.08.
With L20Q the protein stability index was 4.04.
In the case of L20E, the protein stability index is reported as 2.94.
In the case of L20D, the protein stability index is reported as 2.98.
Work on L20S yielded a protein stability index of 3.33.
Work on L20G yielded a protein stability index of 3.6.
For L20K, the protein stability index was 3.29.
For L20P, the protein stability index was 3.2.
Work on L20N yielded a protein stability index of 3.26.
For L20V, the protein stability index was 2.85.
Work on L20M yielded a protein stability index of 2.92.
Work on L20F yielded a protein stability index of 2.71.
With L20W the protein stability index was 2.73.
Work on L20T yielded a protein stability index of 3.56.
For L20R, the protein stability index was 3.51.
L20I showed a protein stability index of 3.02.
In the case of L20H, the protein stability index is reported as 3.43.
